Test results as given in PMC6443809, “Integrin activation by the lipid molecule 25-hydroxycholesterol induces a proinflammatory response” (Nature Communications, 2019).

Key:
[1] = target: T1, αvβ3 integrin (Homo sapiens, UniProt P05106+P06756); assay: SPR (Biacore […], immobilized αvβ[…]); also 3H-25HC binding with fractalkine-CD competition and biotin-25HC pull-down
T1 construct: gene ITGAV; Purified human αvβ3 integrin protein; with integrin αv subunit (ITGAV)

[2] = target: purified human αvβ3 integrin protein (human) (UniProt P06756); assay: radioligand binding; modified ELISA-type competitive assay: αvβ3 integrin coated on 96-well plate (200 ng/well in PBS with 1 mM MnCl2, 16 h, 4 °C); fractalkine-CD (1000 ng/well in HEPES-Tyrodes buffer) or water added 2 h at room temperature, washed; then 3H-25HC in PBS/0.5% BSA 16 h at 4 °C; bound radioactivity counted
[3] = target: collagen-I (Homo sapiens) (UniProt P02452); assay: SPR; details: cited from earlier work
[4] = target: IGF1 (Homo sapiens) (UniProt P05019); assay: SPR; details: cited from earlier work
[5] = target: phospholipase A2 (Homo sapiens) (UniProt P14555); assay: SPR; details: cited from earlier work
[6] = target: vitronectin (Homo sapiens) (UniProt P04004); assay: SPR; details: cited from earlier work

With C[C@H](CCCC(C)(C)O)[C@H]1CC[C@H]2[C@@H]3CC=C4C[C@@H](O)CC[C@]4(C)[C@H]3CC[C@]12C [25HC, 25-hydroxycholesterol] the Kd [1] was 0.0109 µM.

With “purified chemokine domain (CD) of recombinant human fractalkine protein (from UniProt P78423 25-397) (domain or fragment)” the loss of 3H-25HC binding to immobilised αvβ3 integrin after pre-incubation with fractalkine-CD [2] was greater than 60%.

For α1β1 integrin (from UniProt P56199), the Kd [3] is given as 0.024 µM.

For αvβ3 integrin (from UniProt P06756), the Kd [4] is given as 0.031 µM, the Kd [5] is given as 0.211 µM and the Kd [6] is given as 0.064 µM.
